The results in this text go back to article doi:10.1101/2024.01.20.576357.

For the test, the target named is SpyCatcher-VLP (virus-like particle of SpyCatcher-HBc) (Hepatitis B virus). The test is described as follows: cryo-EM structure.

“SpyCatcher-VLP (virus-like particle of SpyCatcher-HBc)” showed a stoichiometry N (monomers per VLP) of 180.
